Measurements published in patent US7235626B1, “Structured peptide scaffold for displaying turn libraries on phage” (Genentech, Inc., priority 1999, dated 2007).
Where two headings read alike, the source gives them in different places. Positions of bridges follow the written chain, without caps; N, C: chain ends. No end group written: not given here.

Key:
[1] = cited from earlier work
[2] = Thiol-disulfide exchange equilibrium (GSH/GSSG redox buffer): intramolecular disulfide formation between two Cys of reduced peptide; Ceff=([pep_ox]/[pep_red])x([GSH]^2/[GSSG]), HPLC after acid quench; conditions: the molecule shown is the open-chain precursor; 32-membered ring; water, ca. 0.15 M Tris, 1 mM EDTA, pH 8.10, 25 mM total glutathione; 0.375 mM; 20.0 °C; 1.5 h
[3] = Thiol-disulfide exchange equilibrium (GSH/GSSG): intramolecular disulfide formation; ddG=-RT ln(Ceff,X/Ceff,Leu), gly-asn turn peptides 1; conditions: the molecule shown is the open-chain precursor; 32-membered ring; water, ca. 0.15 M Tris, 1 mM EDTA, pH 8.10, 25 mM total glutathione; 0.375 mM; 20.0 °C; 1.5 h
[4] = Cysteine effective concentration (Ceff) measurement, thiol-disulfide equilibrium relative to glutathione; type: physicochemical; conditions: Table 2, bhpW and CD4 C′-C″ loop peptides, pH 8.10, 20° C.
Procedure: Cysteine Effective Concentration Measurements. Glutathione stock solutions were prepared by mixing 3 volumes of 0.2 M reduced glutathione (GSH) with 1 volume of 0.1 M oxidized glutatione (GSSG). Aliquots were stored at −80° C. and were stable for several months; use of a single batch eliminated any error in ΔΔG values that might arise from variability of total glutathione concentration. Thiol-disulfide equilibria were established by mixing 50 μL peptide stock (approximately 3 mM in water) with 50 μL glutathione stock, deoxygenating the acidic solution with vacuum/argon cycles from a Firestone valve, then adding 300 μL of deoxygenated buffer by syringe (0.2 M tris, pH 8.0; 1 mM EDTA; 67 mM tris base to titrate glutathione), followed by further deoxygenation of the mixture. The final pH of all reaction mixtures was 8.10±0.05. Solutions were stirred under argon and maintained at 20° C. in a water bath. After 1.5 h, successive aliquots (100 μL) were removed with a gastight syringe, immediately quenched by discharge into 400 μL of 3.1 mM HCl, and analyzed by HPLC with a minimum of delay. Ceff values were calculated from the molar ratios of the reduced and oxidized forms of peptide and glutathione (peak area ratios corrected for absorbance differences measured by HPLC), assuming 0.025 M total glutathione monomer (i.e., neglecting the minor amount (<1%) of glutathione present in mixed disulfides with peptide): Ceff=([peptideox]/[peptidered])×([GSH]^2/[GSSG]) [GSH]+2[GSSG]=0.025 M [GSSG]=0.025 M/{2+3.26 (GSH peak area/GSSG peak area)} [peptideox]/[peptidered]=equilibrium peak area ratio/absorbance ratio
Two or three samples from each reaction mixture were analyzed; there were no shifts in populations with time, and calculated Ceff values typically varied by less than 5% (equivalent to 30 cal/mol uncertainty in ΔΔG).

[5] = Circular dichroism spectra of peptides; type: physicochemical; conditions: 10° C.; 20 μM peptide in 20 mM potassium phosphate, pH 7.0
Procedure: Terminal serine and lysine residues were added to improve the solubility of some variants of the CD4 peptide, which are otherwise uncharged. A similar modification was made to bhpW as a control. Non-turn residues that differ between bhpW and the CD4 loop are underlined. Coelution of reduced and oxidized peptides prevented measurement of Ceff for the T2, N3 variant of the CD4 peptide. Circular dichroism spectra were acquired at 10° C. with an Aviv Instruments, Inc. Model 202 spectrophotometer; peptide concentrations were 20 μM in 20 mM potassium phosphate, pH 7.0.

For “GEWTYDDATKTFTVTE (turn peptide) [hairpin peptide derived from the B1 domain of protein G]”, the hairpin population ([1]; 273 K, from denaturation study) is listed as 80%, the ΔH of folding ([1]; assuming ΔCp=0) is listed as -11.6 kcal/mol and the ΔS of folding ([1]; assuming ΔCp=0) is listed as −39 cal/mol K. The hairpin population ([1]; in water, NMR estimate) was “about 50%”.

For “YITNSDGTWT (turn peptide) [model peptide forming a register-shifted hairpin]”, the hairpin population ([1]; in water, NMR estimate) is listed as 80%.

For `CC(C)C[C@H](NC(=O)[C@H](Cc1ccccc1)NC(=O)[C@H](CO)NC(=O)CNC(=O)[C@H](CCC(N)=O)NC(=O)[C@H](Cc1c[nH]c2ccccc12)NC(=O)[C@@H](NC(=O)[C@H](CS)NC(=O)[C@@H](N)CO)[C@@H](C)O)C(=O)N[C@H](C(=O)N[C@@H](CS)C(=O)N[C@@H](CCCCN)C(N)=O)[C@@H](C)O` [H-SCTWQGSFLTCK-NH2], the ring closure, Ceff [2] was 120 mM.

`CC(=O)N[C@@H](CS)C(=O)N[C@H](C(=O)N[C@@H](CC(N)=O)C(=O)N[C@@H](CCC(=O)O)C(=O)NCC(=O)N[C@@H](CC(N)=O)C(=O)N[C@@H](CCCCN)C(=O)N[C@@H](CC(C)C)C(=O)N[C@H](C(=O)N[C@@H](CS)C(N)=O)[C@@H](C)O)[C@@H](C)O` [Ac-CTNEGNKLTC-NH2] gave a ring closure, Ceff [2] of 52 mM.

With `CC(=O)N[C@@H](CS)C(=O)N[C@H](C(=O)N[C@@H](Cc1ccc(O)cc1)C(=O)N[C@@H](CCC(=O)O)C(=O)NCC(=O)N[C@@H](CC(N)=O)C(=O)N[C@@H](CCCCN)C(=O)N[C@@H](CC(C)C)C(=O)N[C@H](C(=O)N[C@@H](CS)C(N)=O)[C@@H](C)O)[C@@H](C)O` [Ac-CTYEGNKLTC-NH2] the ring closure, dG (kcal/mol relative to X=Leu) [3] was -0.08 and the ring closure, Ceff [2] was 98 mM.

With “SCTWEGNKLTCK-NH2 (disulfide 2-11 (inferred)) [bhpW with terminal serine and lysine added as a control]” the Ceff [4] was 273 ± 2 mM and the “[θ]215” value [5] was −17,400 deg cm^2 dmol^−1.

In the case of KKYTVSINGKKITVSI (turn peptide), the “ΔG of hairpin formation” value ([1]; 298 K) is given as 0.08 kcal/mol and the hairpin population ([1]; in water, 303 K) is given as 50%.

Molecule `CC(=O)N[C@@H](CS)C(=O)N[C@H](C(=O)N[C@H](C(=O)N[C@@H](CCC(=O)O)C(=O)NCC(=O)N[C@@H](CC(N)=O)C(=O)N[C@@H](CCCCN)C(=O)N[C@@H](CC(C)C)C(=O)N[C@H](C(=O)N[C@@H](CS)C(N)=O)[C@@H](C)O)[C@@H](C)O)[C@@H](C)O` [Ac-CTTEGNKLTC-NH2] has a ring closure, dG (kcal/mol relative to X=Leu) [3] of 0.3.

With “SCTNQGSFLTCK-NH2 (disulfide 2-11 (inferred)) [T2, N3 variant of the CD4 peptide]” the “[θ]215” value [5] was −5,000 deg cm^2 dmol^−1.

In the case of “RGITVNGKTYGR (turn peptide) [designed β-hairpin peptide, type I′ turn flanked by three-residue strands]”, the hairpin population ([1]; in water, NMR estimate) is listed as “about 30%”.

Work on `CC(=O)N[C@@H](CS)C(=O)N[C@H](C(=O)N[C@@H](CCCCN)C(=O)N[C@@H](CCC(=O)O)C(=O)NCC(=O)N[C@@H](CC(N)=O)C(=O)N[C@@H](CCCCN)C(=O)N[C@@H](CC(C)C)C(=O)N[C@H](C(=O)N[C@@H](CS)C(N)=O)[C@@H](C)O)[C@@H](C)O` [Ac-CTKEGNKLTC-NH2] yielded a ring closure, Ceff [2] of 52 mM.

Work on `CC(C)C[C@H](NC(=O)[C@H](Cc1ccccc1)NC(=O)[C@H](CO)NC(=O)CNC(=O)[C@H](CCC(N)=O)NC(=O)[C@H](Cc1c[nH]c2ccccc12)NC(=O)CNC(=O)[C@H](CS)NC(=O)[C@@H](N)CO)C(=O)N[C@H](C(=O)N[C@@H](CS)C(=O)N[C@@H](CCCCN)C(N)=O)[C@@H](C)O` [H-SCGWQGSFLTCK-NH2] yielded a ring closure, Ceff [2] of 48 mM.

In the case of MQIGVKNPDGTITLEV (turn peptide), the hairpin population ([1]; in water, NMR estimate) is listed as “ca. 80%”.

With `CC(=O)N[C@@H](CS)C(=O)N[C@H](C(=O)N[C@@H](Cc1c[nH]c2ccccc12)C(=O)N[C@@H](CCC(=O)O)C(=O)NCC(=O)N[C@@H](CC(N)=O)C(=O)N[C@@H](CCCCN)C(=O)N[C@@H](CC(C)C)C(=O)N[C@H](C(=O)N[C@@H](CS)C(N)=O)[C@@H](C)O)[C@@H](C)O` [Ac-CTWEGNKLTC-NH2] the ring closure, dG (kcal/mol relative to X=Leu) [3] was -0.53 and the ring closure, Ceff [2] was 210 mM.

`CC(=O)N[C@@H](CS)C(=O)N[C@H](C(=O)N[C@@H](CC(=O)O)C(=O)N[C@@H](CCC(=O)O)C(=O)NCC(=O)N[C@@H](CC(N)=O)C(=O)N[C@@H](CCCCN)C(=O)N[C@@H](CC(C)C)C(=O)N[C@H](C(=O)N[C@@H](CS)C(N)=O)[C@@H](C)O)[C@@H](C)O` [Ac-CTDEGNKLTC-NH2] gave a ring closure, dG (kcal/mol relative to X=Leu) [3] of 0.32.

With “SCGWQGSFLTCK-NH2 (disulfide 2-11 (inferred))” the Ceff [4] was 48 ± 0 mM and the “[θ]215” value [5] was −6,100 deg cm^2 dmol^−1.

`CC(=O)N[C@@H](CS)C(=O)N[C@H](C(=O)N[C@H](C(=O)N[C@@H](CCC(=O)O)C(=O)NCC(=O)N[C@@H](CC(N)=O)C(=O)N[C@@H](CCCCN)C(=O)N[C@@H](CC(C)C)C(=O)N[C@H](C(=O)N[C@@H](CS)C(N)=O)[C@@H](C)O)C(C)C)[C@@H](C)O` [Ac-CTVEGNKLTC-NH2] gave a ring closure, dG (kcal/mol relative to X=Leu) [3] of 0.09 and a ring closure, Ceff [2] of 73 mM.

`CC(C)C[C@H](NC(=O)[C@H](CCCCN)NC(=O)[C@H](CC(N)=O)NC(=O)CNC(=O)[C@H](CCC(=O)O)NC(=O)[C@H](Cc1c[nH]c2ccccc12)NC(=O)[C@@H](NC(=O)[C@H](CS)NC(=O)[C@@H](N)CO)[C@@H](C)O)C(=O)N[C@H](C(=O)N[C@@H](CS)C(=O)N[C@@H](CCCCN)C(N)=O)[C@@H](C)O` [H-SCTWEGNKLTCK-NH2] gave a ring closure, Ceff [2] of 273 mM.

With “SCGNQGSFLTCK-NH2 (disulfide 2-11 (inferred)) [cd1a]” the Ceff [4] was 45 ± 4 mM and the “[θ]215” value [5] was −1,500 deg cm^2 dmol^−1.

With `CC(C)C[C@H](NC(=O)[C@H](Cc1ccccc1)NC(=O)[C@H](CO)NC(=O)CNC(=O)[C@H](CCC(N)=O)NC(=O)[C@H](CC(N)=O)NC(=O)CNC(=O)[C@H](CS)NC(=O)[C@@H](N)CO)C(=O)N[C@H](C(=O)N[C@@H](CS)C(=O)N[C@@H](CCCCN)C(N)=O)[C@@H](C)O` [H-SCGNQGSFLTCK-NH2] the ring closure, Ceff [2] was 45 mM.

In the case of IYSNSDGTWT (turn peptide), the hairpin population ([1]; in water, NMR estimate) is given as 30%.

For `CC(=O)N[C@@H](CS)C(=O)N[C@H](C(=O)N[C@@H](CC(C)C)C(=O)N[C@@H](CCC(=O)O)C(=O)NCC(=O)N[C@@H](CC(N)=O)C(=O)N[C@@H](CCCCN)C(=O)N[C@@H](CC(C)C)C(=O)N[C@H](C(=O)N[C@@H](CS)C(N)=O)[C@@H](C)O)[C@@H](C)O` [Ac-CTLEGNKLTC-NH2], the ring closure, dG (kcal/mol relative to X=Leu) [3] was 0 and the ring closure, Ceff [2] was 85 mM.

`CC(=O)N[C@@H](CS)C(=O)N[C@H](C(=O)N[C@@H](Cc1ccccc1)C(=O)N[C@@H](CCC(=O)O)C(=O)NCC(=O)N[C@@H](CC(N)=O)C(=O)N[C@@H](CCCCN)C(=O)N[C@@H](CC(C)C)C(=O)N[C@H](C(=O)N[C@@H](CS)C(N)=O)[C@@H](C)O)[C@@H](C)O` [Ac-CTFEGNKLTC-NH2] gave a ring closure, Ceff [2] of 88 mM.

In the case of “IYSNPDGTWT (turn peptide) [variant of tendamistat-based model peptide]”, the hairpin population ([1]; in water, NMR estimate) is given as 30%.

In the case of “SCTWQGSFLTCK-NH2 (disulfide 2-11 (inferred)) [cd2a]”, the Ceff [4] is reported as 120 ± 0 mM and the “[θ]215” value [5] is reported as −14,000 deg cm^2 dmol^−1.
